This is an account of results in US20210115092A1 (YEDA RESEARCH AND DEVELOPMENT, published 2021).

The chains are these.
B1: DNA repair protein RAD50 (other)
chain: MSRIEKMSILGVRSFGIEDKDKQIITFFSPLTILVGPNGAGKTTIIECLKYICTGDFPPGTKGNTFVHDPKVAQETDVRAQIRLQFRDVNGELIAVQRSMVCTQKSKKTEFKTLEGVITRTKHGEKVSLSSKCAEIDREMISSLGVSKAVLNNVIFCHQEDSNWPLSEGKALKQKFDEIFSATRYIKALETLRQVRQTQGQKVKEYQMELKYLKQYKEKACEIRDQITSKEAQLTSSKEIVKSYENELDPLKNRLKEIEHNLSKIMKLDNEIKALDSRKKQMEKDNSELEEKMEKVFQGTDEQLNDLYHNHQRTVREKERKLVDCHRELEKLNKESRLLNQEKSELLVEQGRLQLQADRHQEHIRARDSLIQSLATQLELDGFERGPFSERQIKNFHKLVRERQEGEAKTANQLMNDFAEKETLKQKQIDEIRDKKTGLGRIIELKSEILSKKQNELKNVKYELQQLEGSSDRILELDQELIKAERELSKAEKNSNVETLKMEVISLQNEKADLDRTLRKLDQEMEQLNHHTTTRTQMEMLTKDKADKDEQIRKIKSRHSDELTSLLGYFPNKKQLEDWLHSKSKEINQTRDRLAKLNKELASSEQNKNHINNELKRKEEQLSSYEDKLFDVCGSQDFESDLDRLKEEIEKSSKQRAMLAGATAVYSQFITQLTDENQSCCPVCQRVFQTEAELQEVISDLQSKLRLAPDKLKSTESELKKKEKRRDEMLGLVPMRQSIIDLKEKEIPELRNKLQNVNRDIQRLKNDIEEQETLLGTIMPEEESAKVCLTDVTIMERFQMELKDVERKIAQQAAKLQGIDLDRTVQQVNQEKQEKQHKLDTVSSKIELNRKLIQDQQEQIQHLKSTTNELKSEKLQISTNLQRRQQLEEQTVELSTEVQSLYREIKDAKEQVSPLETTLEKFQQEKEELINKKNTSNKIAQDKLNDIKEKVKNIHGYMKDIENYIQDGKDDYKKQKETELNKVIAQLSECEKHKEKINEDMRLMRQDIDTQKIQERWLQDNLTLRKRNEELKEVEEERKQHLKEMGQMQVLQMKSEHQKLEENIDNIKRNHNLALGRQKGYEEEIIHFKKELREPQFRDAEEKYREMMIVMRTTELVNKDLDIYYKTLDQAIMKFHSMKMEEINKIIRDLWRSTYRGQDIEYIEIRSDADENVSASDKRRNYNYRVVMLKGDTALDMRGRCSAGQKVLASLIIRLALAETFCLNCGIIALDEPTTNLDRENIESLAHALVEIIKSRSQQRNFQLLVITHDEDFVELLGRSEYVEKFYRIKKNIDQCSEIVKCSVSSLGFNVH
B2: Double-strand break repair protein MRE11A (enzyme)
chain: STADALDDENTFKILVATDIHLGFMEKDAVRGNDTFVTLDEILRLAQENEVDFILLGGDLFHENKPSRKTLHTCLELLRKYCMGDRPVQFEILSDQSVNFGFSKFPWVNYQDGNLNISIPVFSIHGNHDDPTGADALCALDILSCAGFVNHFGRSMSVEKIDISPVLLQKGSTKIALYGLGSIPDERLYRMFVNKKVTMLRPKEDENSWFNLFVIHQNRSKHGSTNFIPEQFLDDFIDLVIWGHEHECKIAPTKNEQQLFYISQPGSSVVTSLSPGEAVKKHVGLLRIKGRKMNMHKIPLHTVRQFFMEDIVLANHPDIFNPDNPKVTQAIQSFCLEKIEEMLENAERERLGNSHQPEKPLVRLRVDYSGGFEPFSVLRFSQKFVDRVANPKDIIHFFRHREQKEKTGEEINFGKLITKPSEGTTLRVEDLVKQYFQTAEKNVQLSLLTERGMGEAVQEFVDKEEKDAIEELVKYQLEKTQRFLKERHIDALEDKIDEEVRRFRETRQKNTNEEDDEVREAMTRARALRSQSEESASAFSADDLMSIDLAEQMANDSDDSISAATNKGRGRGRGRRGGRGQNSASRGGSQRGRADTGLETSTRSRNSKTAVSASRNMSIIDAFKSTRQQPSRNVTTKNYSEVIEVDESDVEEDIFPTTSKTDQRWSSTSSSKIMSQSQVSKGVDFESSEDDDDDPFMNTSSLRRNRR
B3: Nibrin (other)
chain: MWKLLPAAGPAGGEPYRLLTGVEYVVGRKNCAILIENDQSISRNHAVLTANFSVTNLSQTDEIPVLTLKDNSKYGTFVNEEKMQNGFSRTLKSGDGITFGVFGSKFRIEYEPLVACSSCLDVSGKTALNQAILQLGGFTVNNWTEECTHLVMVSVKVTIKTICALICGRPIVKPEYFTEFLKAVESKKQPPQIESFYPPLDEPSIGSKNVDLSGRQERKQIFKGKTFIFLNAKQHKKLSSAVVFGGGEARLITEENEEEHNFFLAPGTCVVDTGITNSQTLIPDCQKKWIQSIMDMLQRQGLRPIPEAEIGLAVIFMTTKNYCDPQGHPSTGLKTTTPGPSLSQGVSVDEKLMPSAPVNTTTYVADTESEQADTWDLSERPKEIKVSKMEQKFRMLSQDAPTVKESCKTSSNNNSMVSNTLAKMRIPNYQLSPTKLPSINKSKDRASQQQQTNSIRNYFQPSTKKRERDEENQEMSSCKSARIETSCSLLEQTQPATPSLWKNKEQHLSENEPVDTNSDNNLFTDTDLKSIVKNSASKSHAAEKLRSNKKREMDDVAIEDEVLEQLFKDTKPELEIDVKVQKQEEDVNVRKRPRMDIETNDTFSDEAVPESSKISQENEIGKKRELKEDSLWSAKEISNNDKLQDDSEMLPKKLLLTEFRSLVIKNSTSRNPSGINDDYGQLKNFKKFKKVTYPGAGKLPHIIGGSDLIAHHARKNTELEEWLRQEMEVQNQHAKEESLADDLFRYNPYLKRRR
notes: also called Nbs1; NBN

The target of the assay is T1, Flag-Cas9 (wild-type, unmodified SpCas9) (Streptococcus pyogenes, UniProt Q99ZW2 2-1368).
T1 construct: expressed in HEK293; also called original Cas9; wt Cas9; not shown: Flag tag and N-terminal NLS of the vector; C-terminal NLS and what remains of the T2A peptide
T1 sequence (Q99ZW2 2-1368): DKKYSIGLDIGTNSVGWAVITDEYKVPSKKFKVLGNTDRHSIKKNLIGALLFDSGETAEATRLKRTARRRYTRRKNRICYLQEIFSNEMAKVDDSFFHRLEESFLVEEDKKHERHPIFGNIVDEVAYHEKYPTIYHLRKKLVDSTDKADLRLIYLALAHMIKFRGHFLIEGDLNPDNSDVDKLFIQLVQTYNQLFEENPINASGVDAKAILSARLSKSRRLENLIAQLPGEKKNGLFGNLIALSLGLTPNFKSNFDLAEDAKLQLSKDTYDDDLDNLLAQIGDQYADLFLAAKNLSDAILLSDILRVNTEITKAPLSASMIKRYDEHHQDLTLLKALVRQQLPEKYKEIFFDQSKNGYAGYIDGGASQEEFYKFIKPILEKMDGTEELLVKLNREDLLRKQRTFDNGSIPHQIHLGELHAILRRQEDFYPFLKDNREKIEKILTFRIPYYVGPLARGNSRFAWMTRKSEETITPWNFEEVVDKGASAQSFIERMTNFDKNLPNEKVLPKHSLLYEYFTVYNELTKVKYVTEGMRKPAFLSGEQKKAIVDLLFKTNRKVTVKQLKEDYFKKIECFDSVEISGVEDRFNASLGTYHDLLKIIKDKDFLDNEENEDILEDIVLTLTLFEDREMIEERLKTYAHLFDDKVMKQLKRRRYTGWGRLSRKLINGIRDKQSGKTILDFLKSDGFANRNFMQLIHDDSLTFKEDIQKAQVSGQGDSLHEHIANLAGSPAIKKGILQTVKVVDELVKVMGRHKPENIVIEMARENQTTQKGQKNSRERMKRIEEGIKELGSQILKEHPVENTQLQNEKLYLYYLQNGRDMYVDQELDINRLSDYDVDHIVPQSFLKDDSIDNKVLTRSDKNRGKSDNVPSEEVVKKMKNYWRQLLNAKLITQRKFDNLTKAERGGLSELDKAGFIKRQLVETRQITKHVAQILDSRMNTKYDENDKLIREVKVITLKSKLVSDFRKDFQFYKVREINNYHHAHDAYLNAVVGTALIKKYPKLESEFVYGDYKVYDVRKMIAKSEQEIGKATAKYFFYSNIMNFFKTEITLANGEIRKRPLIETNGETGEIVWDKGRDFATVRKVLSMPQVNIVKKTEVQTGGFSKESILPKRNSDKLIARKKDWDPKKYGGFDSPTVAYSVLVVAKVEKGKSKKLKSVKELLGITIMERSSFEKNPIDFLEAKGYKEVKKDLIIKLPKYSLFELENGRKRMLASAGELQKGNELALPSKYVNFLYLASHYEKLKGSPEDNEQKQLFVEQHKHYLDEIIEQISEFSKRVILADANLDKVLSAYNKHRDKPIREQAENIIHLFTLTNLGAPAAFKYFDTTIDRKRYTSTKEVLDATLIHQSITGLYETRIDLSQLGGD
Briefly: co-immunoprecipitation, anti-Flag IP from transfected HEK293 extracts, immunoblot.
Turning to B1, the binding result was “no binding”.

As for B2, the binding result is reported as “no binding”.

Regarding B3, the binding result is reported as “no binding”.
